Reference: patent US20090170069A1

Target: amyloid β-peptide Aβ40, aggregating sample (soluble oligomers, early intermediates) (UniProt P05067)
Assay: cell-based or functional assay

B1: TJ10 (beta-sheet mini protein) (designed binder)
chain: MAQTFWLSIQGKTLYWQIRIYAIDAAEAEKIFKQYANDNGIDGEWTYDDATKTFTVTE
Binder B1 has a ThT fluorescence: share of Aβ40 aggregated after 18 h of 38%.
